This test has as its target highest binding amyloid (in vitro). Nature of the test: calculated from in vitro binding of the antibody to amyloid; method not described.

B1: CAEL-101 antibody having a heavy chain variable domain (VH) as set forth in SEQ ID NO:1 and a light chain variable domain (VL) as set forth in SEQ ID NO:2 (antibody, human IgG1, V domains shown)
VH: QVQLKESGPGLVAPSQSLSITCTVSGFSLSSYGVSWVRQPPGKGLEWLGVIWGDGSTNYHPNLMSRLSISKDISKSQVLFKLNSLQTDDTATYYCVTLDYWGQGTSVTVSS
VL: DVVMTQTPLSLPVSLGDQASISCRSSQSLVHRNGNTYLHWYLQKPGQSPKLLIYKVSNRFSGVPDRFSGSGSGTDFTLKISRVEAEDLGLYFCFQTTYVPNTFGGGTKLEIK
Consider B1, for which the Michaelis-Menton EC 90 (calculated) was 36.5 µg/mL.

The values above are taken from patent US20240392028A1.
